Assay [1] deals with β-amyloid (1-40). The assay can be described thus: sandwich EIA, solid phase BAN-50a, label BA-27a-HRP (1000-fold dilution).
Assay [2] addresses β-amyloid (1-40). The assay can be described thus: sandwich EIA, solid phase BAN-50a, label BA-27a-HRP (1500-fold dilution).
Assay [3] concerns the target β-amyloid (1-40). The assay can be described thus: competitive EIA with β-Gal-labeled βA(1-40); unlabeled peptide varied.
Assay [4] addresses β-amyloid (1-40). The assay is described as follows: sandwich EIA, solid phase BAN-052a, label BA-27a-HRP.
Assay [5] has as its target β-amyloid (1-40). The assay can be described thus: sandwich EIA, solid phase BA-27a, label BAN-052a-HRP.
Assay [6] concerns the target β-amyloid (1-38). The assay can be described thus: sandwich EIA, solid phase BAN-50a, label BA-27a-HRP.
Assay [7] concerns the target β-amyloid (1-39). Described as above.
Assay [8] has as its target β-amyloid (1-42). The assay is described as above.
For assay [9], the target named is β-amyloid (1-38). The assay is described as follows: sandwich EIA, solid phase BAN-50a, label BA-27a-HRP; against β-amyloid (1-40).
Assay [10] has as its target β-amyloid (1-39). The assay is described as above.
The target in assay [11] is β-amyloid (1-42). The assay is described as above.

The IC50 is the concentration needed to halve the response being measured. A lower IC50 goes with inhibition by little substance. For BA-27a (antibody), the detection sensitivity in the assay with β-amyloid (1-40) [1] is 0.2 pg/well; in the assay with β-amyloid (1-40) [2], 0.2 pg/well; with β-amyloid (1-40) [4], 0.6 pg/well; with β-amyloid (1-40) [5], 10 pg/well; in the assay with β-amyloid (1-38) [6], 85 pg/well; with β-amyloid (1-39) [7] it was 17 pg/well. The detection sensitivity in the assay with β-amyloid (1-42) [8] turned out to be 18 pg/well. This substance also returned an IC50 with β-amyloid (1-40) [3] of 200 nM. Further, the cross reactivity with β-amyloid (1-38) [9], in the assay with β-amyloid (1-39) [10] and in the assay with β-amyloid (1-42) [11] was less than 2% in each case.

The record behind these values is patent US5750349.
